Reference: the PETadex activity labels (doi:10.1002/cssc.202101062)
Substitutions are numbered along the chain they refer to.

B1: unnamed (protein)
chain: MANPYERGPAPTTSSIEASRGPFAIASVTVSRSSVSGFGGGTIYYPRDTSEGTFGAVAIAPGFTADEGSMAWYGPRIASQGFVVFTIDTITRLDQPDSRGRQLLAALDYLTQRSSVRSRIDSSRLAVMGHSMGGGGSLEASVSRPSLKAAIPLTPWNLKKNWRDVRVPTLIVGAESDSIASVRTHAEPFYESIPSTTNKAYLELNNATHFAPNISNTTIAKYSISWLKRFVDNDTRYEQFLCPPPRPDRDIEEYRSTCPH
B2: unnamed (protein)
chain: MANPYERGPNPTDALLEARSGPFSVSEENVSRLSASGFGGGTIYYPRENNTYGAVAISPGYTGTEASIAWLGERIASHGFVVITIDTITTLDQPDSRAEQLNAALNHMINRASSTVRSRIDSSRLAVMGHSMGGGGSLRLASQRPDLKAAIPLTPWHLNKNWSSVRVPTLIIGADLDTIAPVLTHARPFYNSLPTSISKAYLELDGATHFAPNIPNKIIGKYSVAWLKRFVDNDTRYTQFLCPGPRDGLFGEVEEYRSTCPF
B3: unnamed (protein)
chain: B2 chain with R166T, L183A, R187K, T195S
B4: unnamed (protein)
chain: MDGVLWRVRTAALMAALLALAAWALVWASPSVEAQSNPYQRGPNPTRSALTADGPFSVATYTVSRLSVSGFGGGVIYYPTGTSLTFGGIAMSPGYTADASSLAWLGRRLASHGFVVLVINTNSRFDYPDSRASQLSAALNYLRTSSPSAVRARLDANRLAVAGHSMGGGGTLRIAEQNPSLKAAVPLTPWHTDKTFNTSVPVLIVGAEADTVAPVSQHAIPFYQNLPSTTPKVYVELDNASHFAPNSNNAAISVYTISWMKLWVDNDTRYRQFLCNVNDPALSDFRTNNRHCQ
B5: unnamed (protein)
chain: MANPYERGPDPTVQSIEAVRGPFSVSETNVSRLVVTGFGGGTIYYPRDTSQGTFGAVAIAPGFTASEGSMAWYGPRIASQGFVVFTIDTLTRLDQPDSRGRQLLAALDYLTQRSSVRSRIDSSRLAVMGHSMGGGGSLEASESRPSLKASIPLTPWNLKKNWRNNRVPTLIVGAENDSIASVRTHAEPFYESIPSTTNKAYLELNNATHFAPNISNTTIAKYSISWLKRFVDNDTRYEQFLCPPPRPDRDIEEYRCTCPY
B6: unnamed (protein)
chain: MDNPYERGPDPTTQSVEAARGPYAVSQITVGGQFGSYSGGTIYYPTSTADGKFGAVAIAPGFLSFQSSVAWLGPRLASQGFVVMTIDTGTIFDQPAQRGDQLLDALDFLTQRSSVKDRIDPNRLAVAGWSMGGGGSLEAAADRPSLKAAIPMAGWNLNTNWSRLTTPVLVVGVQNDLIAPVGSHSEPFYNSIRSEKAYLELAGGSHFTVTSANTPQAKLMISWLKRFVDNDTRYEQFICPGPSRGFSVSEYRSTCPF
B7: unnamed (protein)
chain: B6 chain with D2E, L76I, M131W, G182A, S183M, F257Y
B8: unnamed (protein)
chain: B6 chain with A49T, L76I, G182A, S183M
B9: unnamed (protein)
chain: MENPYERGPDPTESSIEAVRGPFAVAQTTVSRLQADGFGGGTIYYPTDTSQGTFGAVAISPGFTAGQESIAWLGPRIASQGFVVITIDTITRLDQPDSRGRQLQAALDHLRTNSVVRNRIDPNRMAVMGHSMGGGGALSAAANNTSLEAAIPLQGWHTRKNWSSVRTPTLVVGAQLDTIAPVSSHSEAFYNSLPSDLDKAYMELRGASHFVSNTPDTTTAKYSIAWLKRFVDNDLRYEQFLCPAPDDFAISEYRATCPF
B10: unnamed (protein)
chain: B9 chain with E2A, F210L, N233D, A255S

Tests used:
PET [1] = assay: Proxy for plastic degradation [Weight/mass loss]; details: pH 8
gfPET [2] = assay: Proxy for plastic degradation [Released monomer concentration (HPLC/LC-MS) (TPA+MHET+BHET)]
gfPET [3] = assay: Proxy for plastic degradation [Weight/mass loss]; details: pH 8
PET [4] = assay: Proxy for plastic degradation [Released monomer concentration (HPLC/LC-MS) (TPA+MHET)]; details: pH 8

Protein | Proxy for plastic degradation (PET [1]; 45 °C) [%] | Proxy for plastic degradation (PET [1]; 50 °C) [%] | Proxy for plastic degradation (PET [1]; 55 °C) [%] | Proxy for plastic degradation (PET [1]; 60 °C) [%] | Proxy for plastic degradation (gfPET [2]; 40 °C) [mmol/h] | Proxy for plastic degradation (gfPET [2]; 50 °C) [mmol/h] | Proxy for plastic degradation (gfPET [2]; 55 °C) [mmol/h] | Proxy for plastic degradation (gfPET [2]; 60 °C) [mmol/h] | Proxy for plastic degradation (gfPET [2]; 65 °C) [mmol/h] | Proxy for plastic degradation (gfPET [2]; 70 °C) [mmol/h] | Proxy for plastic degradation (gfPET [2]; 75 °C) [mmol/h] | Proxy for plastic degradation (gfPET [2]; 80 °C) [mmol/h] | Proxy for plastic degradation (gfPET [2]; 85 °C) [mmol/h] | other results
B1 | 1 | 2.5 | 1 | 0.5 | 0 | 0.38 | 0.2 | 0.1 | 0.05 | 0.05 | 0.05 | 0.05 | 0.05 | –
B2 | 0.5 | 1 | 1 | 1 | – | – | – | – | – | – | – | – | – | Proxy for plastic degradation (PET [1]; 65 °C): 15%; Proxy for plastic degradation (PET [1]; 70 °C): 18%; Proxy for plastic degradation (PET [1]; 75 °C): 15%
B3 | – | – | – | – | 0 | 0.05 | 0.08 | 0.18 | 0.2 | 0.2 | 0.08 | 0.05 | 0 | Proxy for plastic degradation (gfPET [3]; 65 °C): 7%; Proxy for plastic degradation (gfPET [3]; 70 °C): 8%; Proxy for plastic degradation (gfPET [3]; 75 °C): 2%
B4 | – | – | – | – | – | – | – | – | – | – | – | – | – | Proxy for plastic degradation (PET [4]; 0 h): 0 mM; Proxy for plastic degradation (PET [4]; 4 h): 3 mM; Proxy for plastic degradation (PET [4]; 8 h): 7 mM; Proxy for plastic degradation (PET [4]; 16 h): 29 mM
B5 | 2 | 2.5 | 1 | 0.5 | 0 | 0.2 | 0.22 | 0.19 | 0.1 | 0.08 | 0.06 | 0.05 | 0.05 | –
B6 | 1 | 1.5 | 1 | 1 | 0 | 0.2 | 0.21 | 0.1 | 0 | 0 | 0 | 0 | 0 | –
B7 | 0.5 | 1 | 0.5 | 0.5 | 0 | 0.1 | 0.13 | 0.05 | 0 | 0 | 0 | 0 | 0 | –
B8 | 2 | 3 | 5 | 8 | 0 | 0.1 | 0.18 | 0.1 | 0 | 0 | 0 | 0 | 0 | –
B9 | – | – | – | – | 0 | 0.08 | 0.11 | 0.18 | 0.25 | 0.3 | 0.38 | 0.41 | 0.38 | Proxy for plastic degradation (PET [1]; 65 °C): 15%; Proxy for plastic degradation (PET [1]; 70 °C): 20%; Proxy for plastic degradation (PET [1]; 75 °C): 18%; Proxy for plastic degradation (gfPET [3]; 65 °C): 18%; Proxy for plastic degradation (gfPET [3]; 70 °C): 18%; Proxy for plastic degradation (gfPET [3]; 75 °C): 18%
B10 | – | – | – | – | – | – | – | – | – | – | – | – | – | Proxy for plastic degradation (PET [1]; 65 °C, part of the chain shown): 75%; Proxy for plastic degradation (PET [1]; 70 °C, part of the chain shown): 95%; Proxy for plastic degradation (PET [1]; 75 °C, part of the chain shown): 60%; Proxy for plastic degradation (gfPET [3]; 65 °C, part of the chain shown): 77%; Proxy for plastic degradation (gfPET [3]; 70 °C, part of the chain shown): 90%; Proxy for plastic degradation (gfPET [3]; 75 °C, part of the chain shown): 58%; Proxy for plastic degradation (PET [4]; 0 h, part of the chain shown): 0 mM; Proxy for plastic degradation (PET [4]; 4 h, part of the chain shown): 15 mM; Proxy for plastic degradation (PET [4]; 8 h, part of the chain shown): 26 mM; Proxy for plastic degradation (PET [4]; 16 h, part of the chain shown): 50 mM; Proxy for plastic degradation (gfPET [2]; 40 °C, part of the chain shown): 0 mmol/h; Proxy for plastic degradation (gfPET [2]; 50 °C, part of the chain shown): 0.45 mmol/h; Proxy for plastic degradation (gfPET [2]; 55 °C, part of the chain shown): 0.8 mmol/h; Proxy for plastic degradation (gfPET [2]; 60 °C, part of the chain shown): 0.9 mmol/h; Proxy for plastic degradation (gfPET [2]; 65 °C, part of the chain shown): 1.1 mmol/h; Proxy for plastic degradation (gfPET [2]; 70 °C, part of the chain shown): 1.4 mmol/h; Proxy for plastic degradation (gfPET [2]; 75 °C, part of the chain shown): 1.7 mmol/h; Proxy for plastic degradation (gfPET [2]; 80 °C, part of the chain shown): 1.65 mmol/h; Proxy for plastic degradation (gfPET [2]; 85 °C, part of the chain shown): 0.9 mmol/h
